Laboratory results taken from article PMC10484683.
Read-outs that look alike come from different tables or passages of the source.

Tests used:
[1] = target: T1, CTCF ZF1-ZF7 (Homo sapiens, UniProt P49711 263-465); assay: fluorescence polarization
T1 sequence: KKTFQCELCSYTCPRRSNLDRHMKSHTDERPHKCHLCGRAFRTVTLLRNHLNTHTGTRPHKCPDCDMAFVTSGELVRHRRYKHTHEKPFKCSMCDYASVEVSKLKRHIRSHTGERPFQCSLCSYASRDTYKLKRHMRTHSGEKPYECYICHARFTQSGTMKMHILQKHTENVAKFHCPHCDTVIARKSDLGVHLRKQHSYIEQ

[2] = target: T2, CTCF ZF3-ZF11 (Homo sapiens, UniProt P49711 322-577); assay: X-ray crystallography
T2 sequence: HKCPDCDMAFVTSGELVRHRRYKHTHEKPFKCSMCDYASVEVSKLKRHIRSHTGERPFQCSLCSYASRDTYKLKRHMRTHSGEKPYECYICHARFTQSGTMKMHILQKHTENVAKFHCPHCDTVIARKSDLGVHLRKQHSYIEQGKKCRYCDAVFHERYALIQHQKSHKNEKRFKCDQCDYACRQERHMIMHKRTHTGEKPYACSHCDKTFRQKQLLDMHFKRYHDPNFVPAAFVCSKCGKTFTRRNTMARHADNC

[3] = target: T1, CTCF ZF1-ZF7; assay: X-ray crystallography
[4] = target: T2, CTCF ZF3-ZF11; assay: X-ray crystallography; remark: listed apart in the source

B1: FP oligo X:Y=A:T (dsDNA)
DNA 1: AGGACCAGCAGGGGACGCA
DNA 2: TGCGTCCCCTGCTGGTCCT
Question: How did the binding signal [1] turn out when B1 was run?
Answer: 7 fold reduced affinity vs G:C

B2: 19-bp (dsDNA)
DNA 1: TGCGCCCCCTGCTGGTCCT
DNA 2: AGGACCAGCAGGGGGCGCA
Question: Does B2 bind [2]?
Answer: binds

B3: 23-bp (dsDNA)
DNA 1: GCCAGCAGGGGGCGCTAGTGAGG
DNA 2: CCTCACTAGCGCCCCCTGCTGGC
Question: Does B3 bind [3]?
Answer: binds

B4: 35-4 (dsDNA)
DNA 1: GTGCAGTACCACATTTAACCAGCAGGGGGCGCTAA
DNA 2: TTAGCGCCCCCTGCTGGTTAAATGTGGTACTGCAC
Question: Does B4 bind [4]?
Answer: binds
